Assay results as given in patent US10058586B2, “Use of human small leucine zipper protein in adipocyte differentiation procedure” (Korea University Research and Business Foundation, priority 2013, dated 2018).

What was measured:
[1] = tested on: CREB element in the FABP4 enhancer region; assay: Electrophoretic mobility shift assay (EMSA) of His-sLZIP with FABP4 enhancer probes; format: binding
Experimental: T4 polynucleotide kinase (Promega, Madison, Wis.) was used to label 5′-terminal of oligonucleotides with [γ-^32P]ATP (Perkin Elmer, Waltham, Mass.). According to instructions of the manufacturer, unbound nucleotides were removed through tubes in a Bio-Gel P-6 spin column (Bio-Rad, Inc., Hercules, Calif.). His-sLZIP proteins were pre-incubated for 20 minutes at room temperature in a 5× binding buffer [10×GRAB, 20 mM of DTT, poly(deoxyinosinic-deoxycytidylic), Sigma, St. Louis] and radiolabeled probes. Reaction mixtures were loaded in wells of 4% nondenaturing polyacrylamide gels, and subjected to electrophoresis for 45 minutes at 180 V in a 0.5×TBE buffer. For competition experiments, a binding reaction was incubated for 30 minutes with 100-fold molar excess of unlabeled CREB binding oligonucleotides before radiolabeled oligonucleotides were added. For supershift analysis, anti-His antibodies were added to a reaction mixture on ice for additional 30 minutes.
A DNA binding ability of sLZIP with various elements in the FABP4 enhancer region was examined. For this purpose, recombinant His-sLZIP fusion proteins (3 μg) were incubated with γ-^32P-labeled oligonucleotide probes containing expected CREB binding elements (FIG. 7B). The γ-^32P-labeled oligonucleotide probes were incubated while an amount of purified His-sLZIPs was increased. For competition analysis, unlabeled CREB oligonucleotide probes of 100-fold excess were used and His antibodies were added to a reaction mixture on ice for additional […] (FIG. 7C). His-sLZIP proteins were subjected to EMSA using wild type and CREB mutant (TGATGTCA→TGGGGTCA) probes (FIG. 7D). 293T cells were temporarily transfected with PPARγ2 (0.5 μg), β-galactosidase (0.1 μg), FABP4 enhancer-luciferase reporter genes (0.2 μg) and sLZIP mutants at different contents (0.1 to 0.5 μg). After the transfection, the cells were stimulated with 10 nM of RZD (FIG. 7F). A luciferase activity was normalized to a β-galactosidase activity and represented as a relative activity (fold change). All experiments were repeated three times, and bars in the graph represent mean±standard deviation. ChIP analysis was performed using HA-sLZIP-specific antibodies and then PCR was performed. Input chromatins or immunoprecipitated chromatins were subjected to PCR and used as a control group for variables.

[2] = tested on: CREB element in the FABP4 enhancer; assay: Chromatin immunoprecipitation (ChIP) with HA-sLZIP in C3H10T1/2 cells; format: cell-based; settings: RZD treated or not
Experimental: C3H10T1/2 cells grown in a 100-mm culture dish were infected with adenovirus HA-sLZIP. After the infection, the cells remained in a growth medium until the cells reaches 100% confluence, and the medium was exchanged with a differentiation medium. The cells were washed with 1×PBS, the medium was treated with 1% formaldehyde for 10 minutes at room temperature, and then glycine was added for 5 minutes at a final concentration of 0.125 M. The cells were strapped with PBS, and centrifuged at 1000×g for 5 minutes at 4° C. ChIP analysis was performed such that anti-HA antibodies and anti-rabbit IgG serving as an internal control group were used and precipitated together with a DNA-protein complex. An enhancer region of FABP4 including a functional CREs was amplified from the prepared DNA.
A DNA binding ability of sLZIP with various elements in the FABP4 enhancer region was examined. For this purpose, recombinant His-sLZIP fusion proteins (3 μg) were incubated with γ-^32P-labeled oligonucleotide probes containing expected CREB binding elements (FIG. 7B). The γ-^32P-labeled oligonucleotide probes were incubated while an amount of purified His-sLZIPs was increased. For competition analysis, unlabeled CREB oligonucleotide probes of 100-fold excess were used and His antibodies were added to a reaction mixture on ice for additional 40 minutes (FIG. 7C). […]

[3] = tested on: multipotential mesenchymal progenitor cells; assay: Oil red O staining, differentiation of multipotential mesenchymal progenitor cells into adipocytes; format: cell-based; settings: C3H10T1/2 and 3T3-L1 cells
PPARγ2 = molecular target: T1, PPARγ2 (Homo sapiens, UniProt P37231); assay: His pull-down of purified His-sLZIP with in vitro translated PPARγ2; format: binding; set-up: made in house; host or cells: PPARγ2: TNT in vitro translation system (Promega); His-sLZIP: E. coli BL21, pET-28a(+)
T1 sequence (P37231 1-505): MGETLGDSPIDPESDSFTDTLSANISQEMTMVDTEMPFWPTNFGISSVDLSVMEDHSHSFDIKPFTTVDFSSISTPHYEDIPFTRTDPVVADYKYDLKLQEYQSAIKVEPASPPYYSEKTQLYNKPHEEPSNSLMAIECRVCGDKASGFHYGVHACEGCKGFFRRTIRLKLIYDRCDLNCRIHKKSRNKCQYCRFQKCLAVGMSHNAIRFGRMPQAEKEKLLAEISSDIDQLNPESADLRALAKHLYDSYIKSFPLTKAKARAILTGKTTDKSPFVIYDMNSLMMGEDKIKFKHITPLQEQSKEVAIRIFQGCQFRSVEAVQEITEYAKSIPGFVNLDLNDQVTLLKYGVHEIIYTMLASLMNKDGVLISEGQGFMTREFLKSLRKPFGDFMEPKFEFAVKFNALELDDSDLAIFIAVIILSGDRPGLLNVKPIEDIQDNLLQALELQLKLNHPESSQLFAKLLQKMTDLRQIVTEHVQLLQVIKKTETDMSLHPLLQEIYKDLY
Experimental: sLZIP was cloned into a pET-28a(+) vector. His-sLZIP proteins were expressed in Escherichia coli (E. coli) BL21 cells using a T7 isopropyl-β-D-thiogalactopyranoside (IPTG)-inducible system. IPTG-induced cells were disrupted bysonification and cell lysates were clarified by centrifugation. His-sLZIP proteins were applied onto a nickel-nitrilotriacetic acid bead column (Bio-Rad, Richmond, Calif.). The column was washed with a great volume of a lysis buffer and 10 mM of imidazole, and eluted in a Ni-NTA elution buffer (Bio-Rad Laboratories, Hercules, Calif.). A fraction containing His-sLZIP proteins was dialyzed against 10% glycerol, and stored at −80° C. Protein purification was evaluated according to 10% SDS-PAGE/Coomassie blue staining and a purity of >98% in general was shown.
In order to examine whether the transcriptional activity of PPARγ2 is regulated by interaction with sLZIP, interaction between sLZIP and PPARγ2 was examined. […] A protein complex was analyzed in SDS-PAGE and then immunoblotted with specific antibodies (FIG. 2A). […] Proteins bound to the bead were analyzed in SDS-PAGE, and then immunoblotted with anti-PPARγ2 and anti-His antibodies (FIG. 2C). GFP-PPARγ2 and Flag-sLZIP constructs were expressed in C3H10T1/2 cells, and analyzed using mouse anti-Flag and Texas Red-labeled anti-mouse antibodies under a fluorescence microscope. […]

B1: sLZIP: human small leucine-zipper protein, isoform of LZIP, 354 amino acids, no transmembrane domain; GenBank FJ263669, SEQ ID NO: 1 (protein, listed as Homo sapiens)
chain: MELELDAGDQDLLAFLLEESGDLGTAPDEAVRAPLDWALPLSEVPSDWEVDDLLCSLLSPPASLNILSSSNPCLVHHDHTYSLPRETVSMDLESESCRKEGTQMTPQHMEELAEQEIARLVLTDEEKSLLEKEGLILPETLPLTKTEEQILKRVRRKIRNKRSAQESRRKKKVYVGGLESRVLKYTAQNMELQNKVQLLEEQNLSLLDQLRKLQAMVIEISNKTSSSSMYSSDTRGSLPAEHGVLSRQLRALPSEDPYQLELPALQSEVPKDSTHQWLDGSDCVLQAPGNTSCLLHYMPQAPSAEPPLEWPFPDLFSEPLCRGPILPLQANLTRKGGWLPTGSPSVILQDRYSG
[1]; 100-fold excess unlabeled CREB probes
  DNA binding to CREB element (EMSA, cold competition): not bound to the CREB element when there were competitors
[1]; CREB mutant TGATGTCA→TGGGGTCA
  DNA binding to CREB mutant probes (EMSA): not bound to CREB mutant probes
[1]; His antibodies added
  supershift (EMSA): supershifted
[1]; His-sLZIP 3 μg, labeled probes
  DNA binding to elements in the FABP4 enhancer region (EMSA): directly bound to a CREB region
[1]; increasing amount of purified His-sLZIP
  DNA binding ability with CREB element (EMSA): increased in a concentration-dependent manner
[2]
  recruitment to CREB element in the FABP4 enhancer (ChIP): gathered in the CREB element in the FABP4 enhancer
[3]
  adipocyte differentiation (oil red O staining): inhibited adipocyte differentiation
PPARγ2
  direct interaction with PPARγ2 (His pull-down): PPARγ2 was directly bound to sLZIP
